Earlier results, collected in article PMC5386376.

Biological target: Egl1 (Caenorhabditis elegans) (UniProt O61667)
Sequence (O61667 whole entry): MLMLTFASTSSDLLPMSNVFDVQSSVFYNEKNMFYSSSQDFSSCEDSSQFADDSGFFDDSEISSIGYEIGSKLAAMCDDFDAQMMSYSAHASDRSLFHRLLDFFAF

Chain of Bcl-2 (P10415 whole entry): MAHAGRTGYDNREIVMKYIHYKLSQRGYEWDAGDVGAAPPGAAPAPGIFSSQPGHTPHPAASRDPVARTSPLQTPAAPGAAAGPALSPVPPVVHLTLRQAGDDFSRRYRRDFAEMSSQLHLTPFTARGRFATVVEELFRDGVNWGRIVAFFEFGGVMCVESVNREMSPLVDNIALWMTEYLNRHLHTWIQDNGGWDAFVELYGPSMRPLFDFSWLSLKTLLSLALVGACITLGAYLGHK

## Bcl-2 (from UniProt P10415)
  Kd: 7.1 µM
